Data reported in US20220119534A1 (DRAGONFLY THERAPEUTICS, published 2022).
Positions count from the first letter of the chain named. Names and notes keep the numbering of the source. Values joined by “and” are separate entries in the source; they are usually repeats but may differ in a detail not shown here. Equal entries are not always repeated. Blank lines part the entries; values can stand above or below the binder they belong to.

Tests used:
mFc-cNKG2D = target: T1, mFc-cNKG2D (cynomolgus monkey, UniProt P61252 73-216); assay: SPR Biacore 37 C; mFc-tagged cyno NKG2D dimer, TriNKET as analyte; steady state affinity fit
T1 construct: extracellular domain; Made in house (Dragonfly Tx); also called recombinant cyno NKG2D extracellular domain (ECD); mFc-tagged cyno NKG2D dimer; not shown: mouse Fc tag
T1 sequence (looked up): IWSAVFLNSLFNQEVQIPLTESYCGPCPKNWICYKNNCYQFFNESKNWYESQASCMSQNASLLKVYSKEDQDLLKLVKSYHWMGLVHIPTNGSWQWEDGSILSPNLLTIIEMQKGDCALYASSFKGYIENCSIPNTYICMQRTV

mFc-hNKG2D [1] = target: T2, mFc-hNKG2D (human, UniProt P26718 73-216); assay: SPR Biacore 8K 37 C; mFc-hNKG2D captured on anti-mFc chip, TriNKET as analyte; steady state fit; after 4 wks 40 C in CST pH 7.0, n=3
T2 construct: extracellular domain; Made in house (Dragonfly Tx); the order of tag and ECD follows the name mFc-hNKG2D; also called mFc-tagged human NKG2D; not shown: mouse Fc tag
T2 sequence (looked up): T1 sequence (looked up) with N43D, I133T

mFc-hNKG2D [2] = target: T2, mFc-hNKG2D; assay: SPR Biacore 8K 37 C; mFc-hNKG2D captured on anti-mFc chip, TriNKET as analyte; 1:1 kinetic fit; after 2 wks 40 C at pH 5.0
Cynomolgus CD64 = target: T3, Cynomolgus CD64 (cynomolgus monkey, UniProt A0A2K5U901 33-309, Probably biotinylated for capture, as in the sister examples (p-1094).); assay: SPR, cynomolgus CD64 captured
T3 construct: Bought recombinant receptor; also called cFcγRI; Cynomolgus CD64 (FcγRI); not shown: The vendor's biotinylation and purification tag
T3 sequence (A0A2K5U901 entry or part of it limits assumed): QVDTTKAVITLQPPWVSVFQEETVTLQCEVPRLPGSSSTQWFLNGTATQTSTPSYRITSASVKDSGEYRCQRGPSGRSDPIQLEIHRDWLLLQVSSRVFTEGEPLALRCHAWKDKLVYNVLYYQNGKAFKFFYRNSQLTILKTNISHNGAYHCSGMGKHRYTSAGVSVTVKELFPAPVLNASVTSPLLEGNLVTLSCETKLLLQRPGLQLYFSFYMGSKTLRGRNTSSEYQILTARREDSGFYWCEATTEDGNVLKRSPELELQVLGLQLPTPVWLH

[3] = target: T4, human CLEC12A on cells (HL60, PL21, Ba/F3-hCLEC12A) (human, UniProt Q5QGZ9 1-265); assay: flow cytometry, 40 nM, MFI after 2 h 37 C relative to 2 h on ice, PL21 cells
T4 construct: Endogenous on the AML lines HL60 and PL21; brought into mouse Ba/F3 cells by retroviral transduction; The cell line stands under assay; also called CLL-1
T4 sequence: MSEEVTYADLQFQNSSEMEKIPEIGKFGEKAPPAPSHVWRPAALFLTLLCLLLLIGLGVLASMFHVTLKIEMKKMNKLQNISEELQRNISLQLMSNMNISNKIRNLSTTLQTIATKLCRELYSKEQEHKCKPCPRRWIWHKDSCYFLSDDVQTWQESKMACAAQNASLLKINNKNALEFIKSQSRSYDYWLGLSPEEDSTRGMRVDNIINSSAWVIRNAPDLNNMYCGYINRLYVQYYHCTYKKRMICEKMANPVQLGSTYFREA

[4] = target: T5, Human CLEC12A-His (recombinant, K244 WT) (human, UniProt Q5QGZ9 65-265); assay: SPR, two-state fit (ka1); after pH 5.0, 40C, 2 wks
T5 construct: Made in house (Dragonfly Tx); also called hCLEC12A; hCLEC12A-His; not shown: His tag
T5 sequence: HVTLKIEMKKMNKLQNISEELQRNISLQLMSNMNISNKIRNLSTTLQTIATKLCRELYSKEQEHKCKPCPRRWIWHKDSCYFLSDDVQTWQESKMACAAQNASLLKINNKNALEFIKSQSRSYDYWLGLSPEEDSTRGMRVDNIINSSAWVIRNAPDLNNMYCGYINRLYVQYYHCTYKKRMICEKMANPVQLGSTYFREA

[5] = target: T5, Human CLEC12A-His (recombinant, K244 WT); assay: SPR, two-state fit (ka1)
Human CLEC12A-K244Q-His = target: T6, Human CLEC12A-K244Q-His (human, UniProt Q5QGZ9 65-265); assay: SPR, two-state fit (ka1)
T6 construct: also called hCLEC12A (Q244); CLEC12A (Q244); not shown: His tag
T6 chain: T5 sequence with K180Q

[6] = target: T7, ECDHDC1 (HuProt array JHU25034.P240F11) (human); assay: HuProt human proteome microarray, AB0089 at 1 µg/ml
T7 construct: Name as printed; may be a misprint of a gene name
T7 sequence (Q9NTX5 whole entry): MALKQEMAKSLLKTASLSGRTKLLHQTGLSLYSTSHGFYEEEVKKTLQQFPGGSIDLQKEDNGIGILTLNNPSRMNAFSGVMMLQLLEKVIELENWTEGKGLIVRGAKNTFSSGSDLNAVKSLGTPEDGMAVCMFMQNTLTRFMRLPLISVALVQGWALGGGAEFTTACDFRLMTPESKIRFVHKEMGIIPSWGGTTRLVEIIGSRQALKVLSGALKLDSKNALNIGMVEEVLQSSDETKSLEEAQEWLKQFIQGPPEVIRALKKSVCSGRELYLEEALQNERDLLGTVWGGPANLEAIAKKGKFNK

[7] = target: BC089418 (HuProt array JHU16002.P168E09) (human); assay: as above
[8] = target: T5, Human CLEC12A-His (recombinant, K244 WT); assay: as above
[9] = target: T5, Human CLEC12A-His (recombinant, K244 WT); assay: SPR, two-state fit (kd1); after pH 5.0, 40C, 2 wks
[10] = target: T8, human CLEC12A expressed on cells (human, UniProt Q5QGZ9 1-265); assay: flow cytometry, hCLEC12A+ Ba/F3
T8 construct: Transduced isogenic cells or endogenous expression on AML cells; also called RMA-hCLEC12A; Ba/F3-hCLEC12A
T8 sequence: T4 sequence

[11] = target: T9, recombinant human CD32a H131 (human, UniProt P12318 36-218, limits assumed, biotinylated); assay: SPR 25C, steady state, average
T9 construct: also called FcγRIIa H131
T9 sequence (looked up): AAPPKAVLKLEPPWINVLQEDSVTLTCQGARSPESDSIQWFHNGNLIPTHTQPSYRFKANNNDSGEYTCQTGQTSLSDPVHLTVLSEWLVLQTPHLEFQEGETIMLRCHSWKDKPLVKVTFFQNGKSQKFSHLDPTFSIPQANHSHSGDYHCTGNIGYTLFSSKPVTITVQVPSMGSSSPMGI

B1: F3'-1602 TriNKET (bispecific antibody, human IgG1, kappa)
chain: QLQLQESGPGLVKPSETLSLTCTVSGFSLTNYGLHWIRQPPGKCLEWIGVIWSGGKTDYNPSLKSRVTISKDTSKNQFSLKLSSVQAADTAVYYCAKYDYDDSLDYWGQGTLVTVSSGGGGSGGGGSGGGGSGGGGSDIQMTQSPSSLSASVGDRVTITCHASQNINFWLSWYQQKPGKAPKLLIYEASNLHTGVPSRFSGSGSGTRFTLTISSLQPEDIATYYCQQSHSYPLTFGCGTKLEIKGSDKTHTCPPCPAPELLGGPSVFLFPPKPKDTLMISRTPEVTCVVVDVSHEDPEVKFNWYVDGVEVHNAKTKPREEQYNSTYRVVSVLTVLHQDWLNGKEYKCKVSNKALPAPIEKTISKAKGQPREPRVYTLPPCRDELTKNQVSLTCLVKGFYPSDIAVEWESNGQPENNYKTTPPVLVSDGSFTLYSKLTVDKSRWQQGNVFSCSVMHEALHNHYTQKSLSLSPG
heavy: EVQLVESGGGLVKPGGSLRLSCAASGFTFSSYSMNWVRQAPGKGLEWVSSISSSSSYIYYADSVKGRFTISRDNAKNSLYLQMNSLRAEDTAVYYCARGAPIGAAAGWFDPWGQGTLVTVSSASTKGPSVFPLAPSSKSTSGGTAALGCLVKDYFPEPVTVSWNSGALTSGVHTFPAVLQSSGLYSLSSVVTVPSSSLGTQTYICNVNHKPSNTKVDKKVEPKSCDKTHTCPPCPAPELLGGPSVFLFPPKPKDTLMISRTPEVTCVVVDVSHEDPEVKFNWYVDGVEVHNAKTKPREEQYNSTYRVVSVLTVLHQDWLNGKEYKCKVSNKALPAPIEKTISKAKGQPREPQVCTLPPSRDELTENQVSLTCLVKGFYPSDIAVEWESNGQPENNYKTTPPVLDSDGSFFLYSWLTVDKSRWQQGNVFSCSVMHEALHNHYTQKSLSLSPG
light: DIQMTQSPSSVSASVGDRVTITCRASQGISSWLAWYQQKPGKAPKLLIYAASSLQSGVPSRFSGSGSGTDFTLTISSLQPEDFATYYCQQGVSFPRTFGGGTKVEIKRTVAAPSVFIFPPSDEQLKSGTASVVCLLNNFYPREAKVQWKVDNALQSGNSQESVTEQDSKDSTYSLSSTLTLSKADYEKHKVYACEVTHQGLSSPVTKSFNRGEC
notes: Trispecific F3' format: CLEC12A scFv-Fc paired with NKG2D Fab-Fc; Stressed and control samples of the stability studies are the same molecule; also called AB0237
Kd (mFc-cNKG2D): 0.829 µM and 0.828 µM and 0.935 µM and 0.719 µM
Kd (mFc-hNKG2D [1]): 0.711 µM
Kd (mFc-hNKG2D [2]): 0.675 µM
koff (mFc-hNKG2D [2]): 0.127 s⁻¹
kon (mFc-hNKG2D [2]): 188000 M⁻¹ s⁻¹

B4: F3'-1602 TriNKET (other)
chain: B1 chain
heavy: B1 heavy
light: B1 light
notes: CLEC12A scFv-Fc, NKG2D A49MI Fab-Fc, human IgG1 Fc; also called AB0237
fold lower EC50 than F3'-1295 [10]: ~2 fold
Kd [11]: 0.9 µM

The next lines start with the values.

Kd (Cynomolgus CD64): 0.0022 µM and 0.0015 µM and 0.0019 µM and 0.0021 µM
koff (Cynomolgus CD64): 0.00012 s⁻¹ and 0.00011 s⁻¹
kon (Cynomolgus CD64): 54000 M⁻¹ s⁻¹ and 80000 M⁻¹ s⁻¹ and 57000 M⁻¹ s⁻¹ and 55000 M⁻¹ s⁻¹
percent surface retention [3]: 101%
B2: AB0192 TriNKET (other)
chain: EVQLVESGGGVVQPGGSLRLSCAASGFTFNAFGMHWVRQAPGKCLEWVAFISSGSTSIYYANTVKGRFTISRDNSKNTLYLQMNSLRAEDTAVYYCARDGYPTGGAMDYWGQGTSVTVSSGGGGSGGGGSGGGGSGGGGSDIQMTQSPSSLSASVGDRVTITCKASQDIYNYLSWFQQKPGKAPKPLIYRANILVSGVPSRFSGSGSGQDYTFTISSLQPEDIATYYCLQFDAFPFTFGCGTKLEIKGSDKTHTCPPCPAPELLGGPSVFLFPPKPKDTLMISRTPEVTCVVVDVSHEDPEVKFNWYVDGVEVHNAKTKPREEQYNSTYRVVSVLTVLHQDWLNGKEYKCKVSNKALPAPIEKTISKAKGQPREPRVYTLPPCRDELTKNQVSLTCLVKGFYPSDIAVEWESNGQPENNYKTTPPVLVSDGSFTLYSKLTVDKSRWQQGNVFSCSVMHEALHNHYTQKSLSLSPG
heavy: B1 heavy
light: B1 light
notes: the condition stands under assay; also called AB0192 Lot AB0192-005

kon [4]: 8.62e+06 M⁻¹ s⁻¹
kon [5]: 1.63e+07 M⁻¹ s⁻¹
kon (Human CLEC12A-K244Q-His): 9.7e+06 M⁻¹ s⁻¹
Z score [6]: 3.75
Z score [7]: 3.7
Z score [8]: 151
koff [9]: 0.0427 s⁻¹
B3: AB0089 TriNKET (bispecific antibody, human IgG1, kappa)
chain: B1 chain with S53V, K56A, K71V, Y98G, D101G, S103T, R207D, I220F
heavy: B1 heavy
light: B1 light
notes: F3' format heterodimer of three chains; human IgG1 Fc with EW-RVT and Y349C/S354C mutations; also called AB0089 Lot AB0089-002; CLEC12A TriNKET AB0089
